Results on 41 sequences are retold here after the nanobody polyreactivity screen of Harvey et al. (2022).

A short description of this data set: yeast display, Sf9 membrane polyspecificity reagent, FACS + sequencing; frameworks hold sequencing errors. The method, boiled down:
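A synthetic nanobody library was expressed on Saccharomyces cerevisiae BJ5465 by galactose induction for 36–48 hours. The library was stained for 1 hour at 4 °C with 10% biotinylated, detergent-solubilized Sf9 membrane reagent and enriched with streptavidin microbeads before FACS. Low and high (top ~1%) gates were set on anti-HA fluorescence for expression and streptavidin fluorescence for reagent binding, and each polyreactivity label reflects the gate of origin.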
For the sequence “QVQLEESCGGLVQAGGSHRLSCAASGSTIYNNAMGWYRQAPRKERELVAAISSGGGITYYADSVKGRFTISRDNAKNSVYLQMNSLKPEDTAVYYCNARRIYLGYNYWGQGTQVTVSS”, the “polyreactivity (PSR sort gate)” value is recorded as “high polyreactivity”.

In the case of “QVQLVESGGGLGQAGGSLRLSCAASGRIFVGYAMGWYRQAPGKERELVAAIDVGGGSTYYADSVKGRFTISRDNAKNTVYLQMNSLKPEDTAVYYCAADAFGWSSYWPYDYWGQGTQVTVSS”, the “polyreactivity (PSR sort gate)” value was “low polyreactivity”.

With “QVQLVESGGGLVQAGGSLRLSCAASGSTFDKYSMGWYRQAPGKERELVAAITWGGGSTYYADSVKGRFTISRDNAKNTVYLQMNSLKPEDTAVYYCAAEQGSSVLYDSWGQGTQVTVSS”, the “polyreactivity (PSR sort gate)” value was “low polyreactivity”.

With “QVQLVESGGGLVQAGGSLRLSCAASGGTFRPNAMGLYRQAPGKERELVAAISYTGSTYYADSVKGRFTISRDNAKYTVYLQMNSMKPEDTAVYYCAAYGYHRYYLYDYWGQGTQVTVSS”, the “polyreactivity (PSR sort gate)” value is given as “low polyreactivity”.

In the case of “QVQLVESGGGLVQAGGSLRLTCSASGSTFYYYAMGWYRQAPGKERELVAAITISGGSTYYADSVKGRFTISRDKAKNTVYLQLNSLKPEDTAVYYCNVDDRETRDDYWGQGTQVTVSS”, the “polyreactivity (PSR sort gate)” value is “low polyreactivity”.

With “QVQLVESGGGLVQAGGSLRLSCAASGIIFRRYAMGWYRQAPGKERELVAAISWSGGSTYYADSVKGRFTISRDNAKNTVYLQMNSLKPEDTAVYYCAAAAYTRDEYDYWGQGTQVTVSS”, the “polyreactivity (PSR sort gate)” value is “high polyreactivity”.

In the case of “QVQLVESGGCLVQAGGSLRLSCAASGRTFRYYAMGWYRQAPGKERELVAAITGGGGSTYYADSVKGRFTISRDNAKNTVYLQMNSLKPEDTAVYYCNKLRYKQWGAQYPMDYWGQGTQVTVSS”, the “polyreactivity (PSR sort gate)” value was “high polyreactivity”.

On to “QVQLVESGGGLVQAGGSLRLSCAASGSIFSYYAMGWYRQAPGKERELVAAISQNGGSTYYADSVKGRFTISRDNAKNTVYLQMNSLKPEDTAVYYCNAYSVYVRGEYWGQGTQVTVSS”, for which the “polyreactivity (PSR sort gate)” value is listed as “high polyreactivity”.

On to “QVQLVESVGGLVQAGGSLRLSCAASGRTLYPNAMGWYRQAPGKERELVASISWSGVSTYYADSVKGRFTISRDNAKNTVYLQMNSLKPEDTAVYYCNAVGYWSDGLVWYEGDYWGQGTQVTVSS”, for which the “polyreactivity (PSR sort gate)” value is reported as “low polyreactivity”.

Consider “QVQLVESGGGLVQAGGSLRLSCAASGLTFDPYAMGWYRQAPGKERELVADISDGASTYYADSVKGRFTMSRDNAKNTVYLQMNSLKPEDTAVYYCNVDVGWYAFTDAYDYWGQGTHVTVSS”, for which the “polyreactivity (PSR sort gate)” value is recorded as “low polyreactivity”.

On to “QVQLVDSGGGLVQARGTLRLSCAASGSTFRVYAMGWYRQAPGKEMELVAAISSSGGITYYADSVKGRFPISRDNAKNSVYLQMNSLKPEDTEVYYCAKGTVIHVLYDYWGQGTQVTVSS”, for which the “polyreactivity (PSR sort gate)” value is “low polyreactivity”.

As for “QVQLVESGGGLVQAGGSLRLSCAASGFTFYPYTMGWYRQAPGKERELVAAISSSGGSTYYADSVKGRFTISRDNAMNTVYLQMNSLKPEDTAVYYCATRSWGPYYYGYNHWGQGSQVTVSS”, the “polyreactivity (PSR sort gate)” value was “high polyreactivity”.

Regarding “QVQLVESGGGLVQAGGSLRLSCAASGFTFFSNAMGWYREAPGQERELVASITNDGSTYADSVKGRFTISRDNAKNTVYLQMNSLKPEDTAVYYCAARFPQWRYSRRTCERFDYWGQGTQVTVSS”, the “polyreactivity (PSR sort gate)” value is recorded as “low polyreactivity”.

As to “QVQLVESGGGLVQAGGSLRLSCAASGRIFDVNAMGWYRQAPGKERELVAAIRSGGRTNYADSVNGRFTISRDNAKNTVYLQMNSLKPEDTAVYYCAAVVWSSLDDYWGQGTQVTVSS”, the “polyreactivity (PSR sort gate)” value is listed as “high polyreactivity”.

On to “QVQLEESAGGIVQAGGSLRFSCAASGSTISAYDIGCYRQEPGKEWELVAAITWIGGNTYYADSVKGRFTISRDTAKNTVYLQMNSLKPEDTEFYYCAAEEVPYDRDMDYWGQGTQVTVSS”, for which the “polyreactivity (PSR sort gate)” value is “low polyreactivity”.

As to “QVQLVESGGGLVQAGGSLRLSCAASGRTFKYYTMGWYRQAPGKERELVAAITSDGSTNYADSVKGRFTISRDNAKNTVYLQMNSLKPEDTAVYYCAAEIRWVFLSYEYWGQGTQVTVSS”, the “polyreactivity (PSR sort gate)” value was “high polyreactivity”.

For “QVHHVESGGGLVQAGGSLRLSSAASGSIISYYAMGWSRHAPGKERELVPAINRSGGSTYYADSVKGRFTITRDNAKNTVYLQMNSLKPDDTAVYYCNAVRLYYGAGGQFQYHYWGQGTHVTVSS”, the “polyreactivity (PSR sort gate)” value was “high polyreactivity”.

For “QVQLEESGGGLVQAGGSLRLSCAASGRTFVLNVMGWYRQAPGKERELVATISGVGSTNYADSVKGRFTISRDNAKNTVYLQMNSLKPEDTAVYYCAKDPHVGRWWDLYSPYYSWGQGTQVTVSS”, the “polyreactivity (PSR sort gate)” value was “low polyreactivity”.

On to “QVQLVESGGGLVQAGGSLRLSCAASGITFEPYAMGWYRQAPGKEREFVADITWSGGSTYYADSVKGRFTISRDNAKNTVYLQMNSLKPEDTAVYYCAADGWTSYWSDYWGQGTQVTVAS”, for which the “polyreactivity (PSR sort gate)” value is reported as “low polyreactivity”.

As for “QVQLVESGGGLVQAGGSLRLSCAASGFIFTRNAMGWYRQAPGKERELVAAITSSGGSTYYADSVKGRFTISRDNAKYTVYLQMNCLKPEDTAVYYFAADDIQTYGDDYWGQGTQVTVSS”, the “polyreactivity (PSR sort gate)” value was “high polyreactivity”.

For “QVQLVESGGGLVQAGGSLRLSCAASGSILGNYAMGWYRQAPGKEREVVAAISSSGRTSYADSVKGRFTISRDNAKNTVYLQMNSLKPEDTAVYYCNASNYIVLINDPDAAPWLYDYWGQGTQVTVSS”, the “polyreactivity (PSR sort gate)” value is on record as “low polyreactivity”.

Consider “QVQLVESGGGLVQAGGSLRLSCAASGRINEYYAMGWYRQAPGKERELVAAISSGGSTYYADSVKGRFTISRDNAKNTVYFQMNSLKPEDTAVYYCAAVYSSYGRRYNSWGQGTQVTVSS”, for which the “polyreactivity (PSR sort gate)” value is on record as “high polyreactivity”.

On to “QVQLVDSGGGLVQAGGSLRLSCPASGFNFYRNAMGSYRQAPGKERELVAAISGSGGRTYYADSVKGRFTISRDNAKNTVYLQMNSLKPEDTAVYYCATDYAYSPYRYWTRYDYWGQGTQVTVSS”, for which the “polyreactivity (PSR sort gate)” value is listed as “high polyreactivity”.

For “QVQLVESGGGLVQAGGSLSLSCDASGSIIQGYAMGWYRQAPGKERELVAAISWSGTSTYYADSVKGRFTISRDNAKNTVYLQMNSLKPEDTEVYYCATDYYYYTAEYEYWGQGTQVTVSS”, the “polyreactivity (PSR sort gate)” value is reported as “high polyreactivity”.

With “QVQLVESGGGLVQAGGSLRLSCAASGRTFTGYAMGWYRQAPGKEREFVAAITQRGGSTYYADSVKGRFTISRDNAKNTVYLQMNSLKPEDTAVYYCAASYLTWKRRYDYWGQGTQVTVSS”, the “polyreactivity (PSR sort gate)” value was “high polyreactivity”.

For the sequence “QVQLVESGGGLVQAGGSLRLSCAASGLTFYTYAMGWYRQAPGKERELVAAITYSGGRTSYADSVKGRFTISRDNAKNTVYLQMNSLKPEDTAVYYCAARTLGRRLDYGYWGQGTQVTVSS”, the “polyreactivity (PSR sort gate)” value is reported as “low polyreactivity”.

Regarding “QVQLVETGGGLVQAGGSLRLSCAASGRIFGPYAMGWYRQAPGKERELVAAITWSGVSTYYADSVKGRFTISRDNAKNSVYLQMNSLKQEDTAVYYCAVDPRGHEGVRYNYWGQGTKVTVSS”, the “polyreactivity (PSR sort gate)” value is “low polyreactivity”.

Take “QVQLVESGGGLVQAGGSLRLSCATSGSTSYPYAMGWYRQAPGKERELVAAISTSGSTTYYADSVKVRFTLSRDNAKKTVYLQMNSLKPEDTAVYYCAKGVNFSQYPFSAYGDGGRYDYWGQGTQVTVSS”: the “polyreactivity (PSR sort gate)” value is reported as “low polyreactivity”.

For “QVQLVESGGGLVQAGGSLRLSCAASGRIFSYFAMGWYRQAPGKEWELVAASSGNGGSTYYADSVKGRFTISRDNAKNTVYLHMNSLKPEDTAVYYCAADWRSSDWAYLYPYSYDDWGQGTQVTVSS”, the “polyreactivity (PSR sort gate)” value was “low polyreactivity”.

Regarding “QVQRVESGGGLVQAGGILRLSCAASGSTFKVNVIGWYRHAPRTERDLVSAINQSGGGKYYADSVKGRFTISRDNAKNTVYLQMNSLKPEDTAVYYCAAKIFVLRYVLSQEQRRYNYWGQGTQLTVSS”, the “polyreactivity (PSR sort gate)” value is on record as “low polyreactivity”.

With “QVQLVESGGGLVQAGGSLRLSCADSGRIFATNAMGWYRHAPGKERELVATITRSAGRTYYADSVKGRFTISRDNAKNTVYLQMNSLKPEDTAVYYCAASYWDTERGYREYDYWGQGTQVTVSS”, the “polyreactivity (PSR sort gate)” value was “low polyreactivity”.

Turning to “QVQLVESGGGLVQAGGSLRLSCAASGRIFGRNAMGWYIQAPGTERELVAAISKSGTSTYYADSVKGRFTISRDNAKNTVYLQMNSLKPEDTAVYYCAAALPGYGDYYYWGQGTQVTVSS”, the “polyreactivity (PSR sort gate)” value is “high polyreactivity”.

For the sequence “PVQLVESGGGLVQAGGSLRLSCAACGGIFPGNAMGWYRQAPGKVRELVATISYSGGSTYYADSVKGRLTISRDNAKNTVYLQMNSLKPEATAVYYCAARGYKPTRSRRTEYGYWGQGTQVTVSS”, the “polyreactivity (PSR sort gate)” value was “high polyreactivity”.

Regarding “QVQLVESCGGLVQAGCSLRLSCAASGSIVAWYTMGWYRQAPGKERELVAGITASGGSTYYADSVKGRFTISRDNAKNTVYLQMNILKPEDTAVYYCAATNPFRYRRGGYWGQGTQVTVSS”, the “polyreactivity (PSR sort gate)” value was “high polyreactivity”.

In the case of “QVQLVESGGGLVQAGGSLRLSCAASGSIFSSYAMGWYRQAPGKERELVAAISSGDSTYYADSVKGRFTISRDNAKNTVYLQMNSLKPEDTAVYYCAAPWYAWGQGTQVTVSS”, the “polyreactivity (PSR sort gate)” value is “low polyreactivity”.

With “QVQLVESGGGLDQARGSLRLSCAASGFTFNYYAMGWYRQAPGKERELVAAISSSGGSTYYADSVKGRFTISRDNAKNTVYLQMNSLKPDDTAVYYCAAPVLPGYNYWGQGTQVTVSS”, the “polyreactivity (PSR sort gate)” value was “high polyreactivity”.

On to “QVQLVESGGGLVLAGGRLRLSCADYRSIFAGYAMGWYRQAPGKERELVAAISSSGGRTYYADSVKGRFTISRDNAKNTVYLQMNSLKPEDTAVYYCAVSTYEEEYWGQGTQVTVSS”, for which the “polyreactivity (PSR sort gate)” value was “high polyreactivity”.

As to “QVQIVESGGGLFQAGGSLRISCAPSGRTLRYNTMGWYRQAPGKERELVAAISIRGGSTYYADSVKGRFTISRDNAKNTVYLQMNSLKPEDTAVSYCNARFTYRWGMGYWGQGTQVTVSS”, the “polyreactivity (PSR sort gate)” value is on record as “high polyreactivity”.

Turning to “QVQLVESGGGLVQAGGSLRLSCAASGRTYQDNAMGWYRQEPGTERELVAAISFNSDSTYYADSVKGRFTISRDNAKNTVYLQMNSLKPEDTAVYYCAAQVVPTLYLRPLDYWGQGTQVTVSS”, the “polyreactivity (PSR sort gate)” value was “low polyreactivity”.

In the case of “QVQLVESGGGLVQAGGSLSLSCAASGRTFGLNVMGWYRQAPGKERELVATISGVGSTNYADSVKWRFTISRDNAKNTVYLQMNSLKPEDTAVYYCAKDPHVGRWWDLYSPYYSWGQGTQVTVSS”, the “polyreactivity (PSR sort gate)” value is reported as “low polyreactivity”.

As to “QVHLVESGGGLVQAGGSLRLSCAASGFIFVRNARGWYRQAPGKERELVARISRSGGSTYYADSVKGRFTISRDNAKNTVYLQMNSLKQEDTAVYYCAAVLQAYPRLDYWGQGTQVTVSS”, the “polyreactivity (PSR sort gate)” value was “high polyreactivity”.
